Source: patent US20240139115A1, “Novel Method for Preparation of Nanoparticles Comprising Cell Penetrating Peptides” (CELLPEPT SWEDEN AB, priority 2021, published 2024)
Where no end group is shown, it is not given here. [ ]: non-standard residue; d: D form. The star is where a group is joined. Stearoyl = CCCCCCCCCCCCCCCCCC(=O)*; R8 = C=CCCCCCC[C@@](C)(N)C(=O)O; Orn = NCCC[C@H](N)C(=O)O

How the values were obtained:
[1] = tested on: human primary keratinocytes; assay: Transfection with EGFP-coding mRNA/CPP complexes; format: cell-based; settings: CPP solutions in mixture of organic solvents; 200 ng mRNA, 520 nM CPP, 20 h; FIG. 3
Protocol: The complexes of 200 ng of mRNA with 520 nM CPP were added into culture medium above cells per well of 24-well plate for 20 h. For the delivery and expression of EGFP, mRNA complexes were assembled with NF71 (dissolved at 1 mM concentration in ethanol/DMSO/trimethylene carbonate 78/20/2) or PF14 (PF14o—dissolved at 1 mM concentration in ethanol/DMSO, or in water—PF14w).
The CPP nanoparticles with mRNA are formed in a similar manner with pDNA. mRNA at concentration 10 μg/ml is complexed with 10 μM PF14 CPP in Milli-Qwater. If required, Ca or Mg ions are incorporated in CPP-mRNA nanoparticles as described above. Unlike other particle solutions described above, CPP-mRNA 10× solutions are directly added into growth medium where cells have been incubated. The preferred N/P ratio (“charge ratio”) of CPP to mRNA is 2. Depending on the charge of used CPP, type of cells and experiment, N/P ratio can be varied in the range 1.5 to 4. For delivery of mRNA into human primary cells, preferentially Mg ions are incorporated in CPP nanoparticles.

[2] = tested on: HeLa pLuc705 cells; assay: Splicing correction luciferase assay (Kole's assay); settings: hPep3 dissolved in the mixture of dimethyl sulfoxide; 100 nM SCO-705, 500 nM peptide, 24 h; FIG. 5
[3] = Transmission electron microscopy (TEM) of size and shape of CPP particles; format: physicochemical
Protocol: (§1) The diameter and zeta potential of CPP nanoparticles may be measured using dynamic light scattering (DLS) or nanoparticle tracking analysis system (NTA) (1), (4) (using 0.01 mM peptide). The morphology of NP is analysed by transmission electron microscopy (TEM) (11), scanning electron microscopy (SEM) or atomic force microscopy (AFM) using 0.1 or 0.01 mM peptide solution.
Analysis of the size and shape of CPP nanoparticles and their complexes with cargo nucleic acids by transmission electron microscopy (TEM) confirmed data from DLS analysis. Depending on the solvent used for preparation of 1 mM peptide solutions, the particles of CPP were largely different.

[4] = Dynamic light scattering (DLS) size and polydispersity of CPP particles after dilution in water; format: physicochemical; settings: PF14 in isopropanol/DMSO/trimethylene carbonate (90/9/1), further 10-fold dilution
Protocol: as §1
The physical characteristics (diameter and zeta-potential) of the peptide micelles/aggregates/nanoparticles were analysed by dynamic light scattering (DLS) using a ZetaView (Particle Metrix, Germany) or ZetasizerNano ZS apparatus (Malvern Instruments, UK) at 10 μM concentration in water.
DLS analysis of the size of CPP particles forming after 100-fold dilution of 1 mM peptide solution in Milli-Q water or organic solvents (ambient temperature) is provided in Table 1.
The optimal size of nanoparticles to be used for drug delivery in vivo is in range of 100 nm (between 10 and 200 nm), and the lack of large aggregates is highly essential. In order to analyse the size of CPP clusters that form in water, DLS traces were measured by Malvern Zetasizer Nano ZS. Four consecutive measurements were performed with each sample for the calculation of the size and polydispersity of the forming CPP particles.

## NickFect 71 (Stearoyl-HHYHHGXILLKALKALAKAIL-NH2; not fully specified (residue 7); printed as HHYHHGObILLKALKALAKAIL; also: Gly6 joined to the Orn7 side-chain delta-amino instead of its alpha-amino) [NF71]
[1]
  transfection of EGFP mRNA and expression of EGFP: enable transfection

## hPep3 (L[R8][dK]LAKA[R8]AKLLKA[R8]AKAL; staple (positions not given here); also: three R8 olefin residues, staple pairing not given here)
[2]
  efficiency of nanoparticles with SCO cargo compared with water-dissolved hPep3: same efficiency

## PepFect 14 (Stearoyl-AGYLLGKLL[Orn][Orn]LAAAAL[Orn][Orn]LL-NH2) [PF14, Stearyl (C18)-…OOLAAAALOOLL, C-terminal amide]
[3]; PF14 in isopropanol/DMSO/trimethylene carbonate (90/9/1) at 1 mM, diluted in water to 0.1 mM, TEM
  aggregates present in specimen: No aggregates
[3]; PF14 in isopropanol/DMSO/trimethylene carbonate (90/9/1) at 1 mM, quick dilution in water to 0.1 mM, TEM
  diameter of spherical nanoparticles: 40-60 nm
[3]; PF14 in isopropanol/DMSO/trimethylene carbonate (90/9/1), 0.1 mM in water
  larger PF14 particles observed in TEM images: 100-150 nm
[1]
  transfection of EGFP mRNA and expression of EGFP: enable transfection
[4]
  average diameter of uniform NP: ~100 nm
